The term EC50 denotes the midpoint of the concentration-response curve.

Data on one molecule can be found in US20180280504A1, “GLYCAN-INTERACTING COMPOUNDS AND METHODS OF USE” (SIAMAB THERAPEUTICS, INC., priority 2014, published 2018).

Several values for one entry are separate records, joined by “and”; a condition that tells them apart may be missing. Identical values can stand only once.

One test can be described thus: Glycan array, AcSTn. The following applies: summary table. The format is binding. On the procedure: (§1) Optimized glycan arrays comprise 71 chemically synthesized and well-defined glycans, most of which comprise Neu5Ac and Neu5Gc glycan pairs.
(§2) 300 ml of epoxy blocking buffer is prepared by combining 15 ml of 2 M Tris buffer (pH 8) with 0.9 ml of 16.6 M ethanolamine and 284.1 ml of distilled water. The solution was brought to a final pH of 9.0 with HCl. The solution is filtered using a […] nitrocellulose membrane. The epoxy buffer solution as well as 1 L of distilled water are pre-warmed to 50° C. Glass slides are arranged in a slide holder and quickly submerged in a staining tub with the warmed epoxy blocking buffer. Slides are incubated in the epoxy blocking buffer for 1 hour at 50° C. with periodic shaking to deactivate epoxy binding sites. Next, slides are rinsed and blocked with PBS with 1% OVA at 25° C. for one hour. Serum samples with polyclonal antibodies (1:1000) or purified monoclonal antibodies (1 ug/mL), are diluted in PBS with 1% OVA and added to the glycan array for one hour at 25° C. After extensive washing, binding of antibodies are detected by incubating glycan microarray slides with Cy3-conjugated anti-mouse IgG (Jackson Immunoresearch, West Grove, Pa.) for one hour. Slides are then washed extensively, dried and scanned with a Genepix 4000B scanner (Laser at 100%; gain at 350; 10 μm pixels). Raw data from scanned images are extracted using the Genepix software and analysis of raw data is carried out.

Another test in a line: Glycan array, GcSTn. Format: binding. The following applies: summary table. On the procedure: as §1, §2
Test [1] in a line: Glycan array STn specificity and anti-STn antibody group assignment. Format: binding. The following applies: summary table. On the procedure: as §2
Based on characterization data, anti-STn antibodies developed from Group 6 and Group 8 mice were categorized by anti-STn group number. In some cases, antibodies were assigned to Group 1. Group 1 antibodies according to the invention are antibodies capable of binding AcSTn and GcSTn. Such antibodies may have the ability to associate with a wider range of STn structures. The large oval in FIG. 1A indicates the portion of STn recognized by Group 1 antibodies. Antibodies were assigned to Group 2 based on their ability to bind STn as well as some related structures that include an O-linkage to serine or threonine. The large oval in FIG. 1B indicates the portion of STn recognized by Group 2 antibodies. In some cases, Group 2 antibodies may bind to glycans comprising a sialylated galactose residue. Some Group 2 antibodies preferably bind to structures with AcSTn over structures with GcSTn. Further anti-STn antibodies were assigned to Group 3. Group 3 antibodies are antibodies capable of binding STn, but may also bind a broader set of related structures. […] The large oval in FIG. 1C indicates the portion of STn recognized by Group 3 antibodies. Finally, some anti-STn antibodies were assigned to Group 4. Group 4 antibodies are capable of binding to both AcSTn and GcSTn as well as the un-sialylated Tn antigen, and therefore have broader specificity. The large oval in FIG. 1D indicates the portion of STn recognized by Group 4 antibodies. […] Also listed in the Table is the antibody Isotype for each antibody as determined by the IsoStrip mouse monoclonal antibody isotyping kit (Roche Diagnostics GmbH, Manheim, Germany).

In test [2] the test system is ST6GalNAc 1 transfected MDA-MB-231 cells (MDA-STn+). Put plainly: Flow cytometry-based analysis of antibody binding, STn+ cells. Details: species or system human. As for the experimental part: Flow cytometry-based analysis is carried out to elucidate the curve-dose response for binding of antibodies to cell surface antigens. For these analyses, three cell lines are employed.
MDA-MB-231 cells are human breast cancer cells. They are grown in Earle's Minimum Essential Medium supplemented with 10% fetal calf serum (FCS), 100 μg/ml penicillin, 100 UI/ml streptomycin and 45 μg/ml gentamycin. MCF-7 cells are also human breast cancer cells and are grown under the same conditions as MDA-MB-231 cells. Stably transfected versions of MDA-MB-231 and MCF-7 cells (clone TAH3.P10 for MDA-MB-231 cells and clone A12.1 for MCF-7 cells) that over express GalNAc α2,6-sialyltransferase (ST6GalNAc 1,) are also cultured under the same conditions with the exception of an added 1 mg/ml of G418 to support cells expressing the transgene. ST6GalNAc 1 is an enzme capable of sialylating GalNAc. As a result of over expression, transfected cells express high levels of Neu5Ac-STn (see Julien, S. et al., Glycoconjugate journal. 2001. 18, 883-93; the contents of which are herein incorporated by reference in their entirety). E3 cells are murine breast cancer cells. They are cultured in Dulbecco's E4 medium with 10% FCS. Stably transfected versions of E3 cells expressing high levels of Neu5Gc-STn (E3-STn) are cultured with 600 μg/ml of G418 and 200 μg/ml hygromycin. During growth and maintenance of experimental cells, trypsin is not used for cell passaging.
For analysis, cells are harvested using StemPro Accutase (Life Technologies, Carlsbad, Calif.) and washed with PBS comprising 5% FBS before pelleting by light centrifugation. Cell numbers and viability are determined by trypan blue dye exclusion analysis and cell concentrations are adjusted to 5×10^6 cells/ml in PBS with 5% FBS. 50 μl of cells are added to each well of an assay plate. Cells are combined with 50 μl solutions of antibody being analyzed or control antibodies and incubated for 1 hour at 4° C. Cells are washed and pelleted twice with PBS with 5% FBS before being treated with 100 μl of PBS with 5% FBS comprising a 1:1,500 dilution of anti-mouse IgG (Southern Biotech, Birmingham, Ala.,) conjugated to allophycocyanin (APC). Cells are incubated for 30 min at 4° C. before washing and resuspending in 200 μl of propidium iodide (PI) diluted 1:1000 in PBS with 5% FBS. Treated cells are then subjects to flow cytometry analysis and 10,000 events are acquired for each sample.
(In general: A flow cytometer gives signals particle by particle.)

B1: S3F: 3F1 variable domains combined with IgG2a constant domains; heavy chain SEQ ID NO: 63, light chain SEQ ID NO: 64 (antibody)
heavy: QVQLQQSDAELVKPGASVKISCKASGYTFTDHAIHWVKQKPEQGLDWIGYISPGNGDIKYNEKFKDKVTLTADKSSSTACMHLNSLTSEDSAVYFCKRSLLALDYWGQGTTLTVSSAKTTAPSVYPLAPVCGDTTGSSVTLGCLVKGYFPEPVTLTWNSGSLSSGVHTFPAVLQSDLYTLSSSVTVTSSTWPSQSITCNVAHPASSTKVDKKIEPRGPTIKPCPPCKCPAPNLLGGPSVFIFPPKIKDVLMISLSPIVTCVVVDVSEDDPDVQISWFVNNVEVHTAQTQTHREDYNSTLRVVSALPIQHQDWMSGKEFKCKVNNKDLPAPIERTISKPKGSVRAPQVYVLPPPEEEMTKKQVTLTCMVTDFMPEDIYVEWTNNGKTELNYKNTEPVLDSDGSYFMYSKLRVEKKNWVERNSYSCSVVHEGLHNHHTTKSFSRTPGK
light: DIVMTQSHKFMSTSVGDRVSITCKASQDVGTNIAWYQQKPGRSPKVLIYSASTRHTGVPDRFTGSGSGTDFTLTISNVQSEDLTDYFCQQYSSFPLTFGVGTKLELKRADAAPTVSIFPPSSEQLTSGGASVVCFLNNFYPKDINVKWKIDGSERQNGVLNSWTDQDSKDSTYSMSSTLTLTKDEYERHNSYTCEATHKTSTSPIVKSFNRNEC
B1: the “Glycan Array AcSTn” value in “Glycan array, AcSTn” came out at 63%. Moreover, in “Glycan array, GcSTn”, the “Glycan Array GcSTn” value is 31%. Also, the “Glycan Array STn Specificity” value in test [1] turned out to be 94%. For the same molecule, in test [2] (ST6GalNAc 1 transfected MDA-MB-231 cells, APC anti-mouse IgG), the “EC50, flow cytometry binding to cell-associated STn” value is 2.051 nM and 2.13 nM and 1.94 nM. Also, the EC50 in test [2] (summary table, unit not printed (same values in nM), read-out: Flow cytometry (EC50) MDA-STn+) was 1.06 nM.
